Assay results taken from paper PMC12775002, “Human O-GlcNAcase catalytic-stalk dimer anchors flexible histone binding domains” (Communications Chemistry, 2025).

B1: human O-GlcNAcase, long isoform (OGA-L), full length (enzyme, UniProt O60502 1-916, looked up)
chain: MVQKESQATLEERESELSSNPAASAGASLEPPAAPAPGEDNPAGAGGAAVAGAAGGARRFLCGVVEGFYGRPWVMEQRKELFRRLQKWELNTYLYAPKDDYKHRMFWREMYSVEEAEQLMTLISAAREYEIEFIYAISPGLDITFSNPKEVSTLKRKLDQVSQFGCRSFALLFDDIDHNMCAADKEVFSSFAHAQVSITNEIYQYLGEPETFLFCPTEYCGTFCYPNVSQSPYLRTVGEKLLPGIEVLWTGPKVVSKEIPVESIEEVSKIIKRAPVIWDNIHANDYDQKRLFLGPYKGRSTELIPRLKGVLTNPNCEFEANYVAIHTLATWYKSNMNGVRKDVVMTDSEDSTVSIQIKLENEGSDEDIETDVLYSPQMALKLALTEWLQEFGVPHQYSSRQVAHSGAKASVVDGTPLVAAPSLNATTVVTTVYQEPIMSQGAALSGEPTTLTKEEEKKQPDEEPMDMVVEKQEETDHKNDNQILSEIVEAKMAEELKPMDTDKESIAESKSPEMSMQEDCISDIAPMQTDEQTNKEQFVPGPNEKPLYTAEPVTLEDLQLLADLFYLPYEHGPKGAQMLREFQWLRANSSVVSVNCKGKDSEKIEEWRSRAAKFEEMCGLVMGMFTRLSNCANRTILYDMYSYVWDIKSIMSMVKSFVQWLGCRSHSSAQFLIGDQEPWAFRGGLAGEFQRLLPIDGANDLFFQPPPLTPTSKVYTIRPYFPKDEASVYKICREMYDDGVGLPFQSQPDLIGDKLVGGLLSLSLDYCFVLEDEDGICGYALGTVDVTPFIKKCKISWIPFMQEKYTKPNGDKELSEAEKIMLSFHEEQEVLPETFLANFPSLIKMDIHKKVTDPSVAKSMMACLLSSLKANGSRGAFCEVRPDDKRILEFYSKLGCFEIAKMEGFPKDVVILGRSL
notes: human O-GlcNAcase (OGA), long isoform OGA-L, 103 kDa, full length, codon optimized; also called hOGA; full-length recombinant OGA; source: E. coli TOP10 (pBAD), purified (Talon resin for the arrays; HisTrap and size-exclusion chromatography for cryo-EM); not shown: His6, N-terminal, kept

Tests used:
[1] = biological target: B1; assay: peptide or protein array; Active Motif MODified histone peptide array (384 modified histone peptides in duplicate, immobilised); 100 nM protein in 20 mM Tris pH 7.5, 1 mM DTT, 0.5 mg/mL BSA, RT 1 h; detected with anti-His6 antibody; 3 or more arrays; details: both partners purified
[2] = biological target: the molecule itself; assay: cryo-EM structure; apo full-length OGA-L, about 0.5 ug/ul in 20 mM Tris, 150 mM NaCl; Titan Krios 300 kV
[3] = biological target: recombinant mononucleosome with the H3K36Me3 modification; assay: pull-down; 500 nM biotinylated mononucleosomes with 0, 25, 50, 100, 250 and 500 nM full-length OGA in OGA assay buffer, overnight 4 °C; captured on streptavidin magnetic beads; bound OGA-L quantified by immunoblot (anti-MGEA5); saturation plot and Scatchard analysis
[4] = biological target: recombinant mononucleosome with the H4K5,8,12,16Ac modification (UniProt P62805); assay: as above

Row | binding result [1] | Kd [3] [nM] | Kd [4] [nM] | Binder | binding result [2]
1 | binds |  |  | SGRGKGGKGLGKGGAKRHR (peptide, UniProt P62805 2-20, looked up, acetyl-lysine at K5, K8, K12 and K16, histone H4 tail peptide, residues 1-19, on the array; also called H4 1-19 K^5,8,12,16Ac; H4K^5,8,12,16Ac; source: bought: Active Motif MODified Histone Peptide Array (peptide on the array)) [histone H4 1-19 peptide, K5,8,12,16Ac] | 
2 |  | 290 | 220 | B1 | binds
3 | binds |  |  | SGRGKGGKGLGKGGAKRHR (peptide, UniProt P62805 2-20, looked up, acetyl-lysine at K8, K12 and K16, histone H4 tail peptide, residues 1-19, on the array; also called H4 1-19 K^8,12,16Ac; H4K^8,12,16Ac; source: bought: Active Motif MODified Histone Peptide Array (peptide on the array)) [histone H4 1-19 peptide, K8,12,16Ac] | 
